Patent publication US20040010124A1 (MacroGenics, published 2004)
Positions count from the first letter of the chain named.

B1: chimeric antibody ch3G8 (ch3G8VH/ch3G8VL) (antibody, V domains shown)
VH: QVTLKESGPGILQPSQTLSLTCSFSGFSLRTSGMGVGWIRQPSGKGLEWLAHIWWDDDKRYNPALKSRLTISKDTSSNQVFLKIASVDTADTATYYCAQINPAWFAYWGQGTLVTVSS
VL: DTVLTQSPASLAVSLGQRATISCKASQSVDFDGDSFMNWYQQKPGQPPKLLIYTTSNLESGIPARFSASGSGTDFTLNIHPVEEEDTATYYCQQSNEDPYTFGGGTKLEIK
notes: Mouse 3G8 VH (FR4 ala to ser) on human Cγ1 and mouse 3G8 VL on human Cκ; also called chimeric 3G8; ch3G8-γ1
B2: hu3G8VH-1/hu3G8VL-1 (antibody, human IgG1, kappa)
heavy: not shown
light: DIVMTQSPDSLAVSLGERATINCKASQSVDFDGDSFMNWYQQKPGQPPKLLIYTTSNLESGVPDRFSGSGSGTDFTLTISSLQAEDVAVYYCQQSNEDPYTFGQGTKLEIKRTVAAPSVFIFPPSDEQLKSGTASVVCLLNNFYPREAKVQWKVDNALQSGNSQESVTEQDSKDSTYSLSSTLTLSKADYEKHKVYACEVTHQGLSSPVTKSFNRGEC
notes: HEK-293; also called Hu3G8-1.1
B3: hu3G8VH-3/hu3G8VL-1 (antibody, V domains shown)
VH: QVTLRESGPALVKPTQTLTLTCTFSGFSLRTSGMGVGWIRQPPGKALEWLAHIWWDDDKRYNPALKSRLTISKDTSKNQVVLTMTNMDPVDTATYYCARINPAWFAYWGQGTLVTVSS
VL: DIVMTQSPDSLAVSLGERATINCKASQSVDFDGDSFMNWYQQKPGQPPKLLIYTTSNLESGVPDRFSGSGSGTDFTLTISSLQAEDVAVYYCQQSNEDPYTFGQGTKLEIK
notes: Human Cγ1/Cκ constant regions; HEK-293
B4: hu3G8VH-16/hu3G8VL-1 (antibody, V domains shown)
VH: B3 VH with R30S, R99K
VL: B3 VL
notes: as for B3
B5: hu3G8VH-44/hu3G8VL-1 (antibody, V domains shown)
VH: QITLKESGPTLVKPTQTLTLTCTFSGFSLSTSGVGVGWIRQPPGKALEWLAHIWWDDDKRYSPSLKSRLTITKDTSKNQVVLTMTNMDPVDTATYYCAHINPAYFDYWGQGTLVTVSS
VL: B3 VL
notes: as for B3
B6: hu3G8VH-12/hu3G8VL-1 (antibody, V domains shown)
VH: B3 VH with R30S, N62S, A64S
VL: B3 VL
notes: as for B3
B7: hu3G8VH-17/hu3G8VL-1 (antibody, V domains shown)
VH: B3 VH with R30S, R99A
VL: B3 VL
notes: as for B3
B8: hu3G8VH-40/hu3G8VL-1 (antibody, V domains shown)
VH: B5 VH with W54F, T72S, H99R, Y104W, D106A
VL: B3 VL
notes: as for B3
B9: hu3G8VH-27/hu3G8VL-1 (antibody, V domains shown)
VH: B5 VH with I2V, K5R, T10A, T72S, H99K
VL: B3 VL
notes: as for B3
B10: hu3G8VH-43/hu3G8VL-1 (antibody, V domains shown)
VH: B5 VH with H99R, D106A
VL: B3 VL
notes: as for B3
B11: hu3G8VH-19/hu3G8VL-1 (antibody, V domains shown)
VH: B3 VH with R30S, R99Q, W104Y
VL: B3 VL
notes: as for B3
B12: hu3G8VH-14/hu3G8VL-1 (antibody, V domains shown)
VH: B3 VH with R30S, D56N
VL: B3 VL
notes: as for B3
B13: hu3G8VH-23/hu3G8VL-1 (antibody, V domains shown)
VH: B5 VH with I2V, K5R, T10A, T72S, H99K, D106A
VL: B3 VL
notes: as for B3
B14: hu3G8VH-45/hu3G8VL-1 (antibody, V domains shown)
VH: B5 VH with H99Q
VL: B3 VL
notes: as for B3
B15: hu3G8VH-18/hu3G8VL-1 (antibody, V domains shown)
VH: B3 VH with R30S, R99H
VL: B3 VL
notes: as for B3
B16: hu3G8VH-24/hu3G8VL-1 (antibody, V domains shown)
VH: B5 VH with I2V, K5R, T10A, T72S, H99A, D106A
VL: B3 VL
notes: as for B3
B17: hu3G8VH-5/hu3G8VL-1 (antibody, V domains shown)
VH: B3 VH with R30S, R99Q
VL: B3 VL
notes: Human Cγ1/Cκ constant regions; HEK-293; also called Hu3G8-5.1; h3G8 5.1
B18: hu3G8VH-6/hu3G8VL-1 (antibody, V domains shown)
VH: B3 VH with R30S, M34V, A106D
VL: B3 VL
notes: as for B3
B19: hu3G8VH-30/hu3G8VL-1 (antibody, V domains shown)
VH: B5 VH with I2V, K5R, T10A, T72S, H99Q
VL: B3 VL
notes: as for B3
B20: hu3G8VH-25/hu3G8VL-1 (antibody, V domains shown)
VH: B5 VH with I2V, K5R, T10A, T72S, D106A
VL: B3 VL
notes: as for B3
B21: hu3G8VH-36/hu3G8VL-1 (antibody, V domains shown)
VH: B5 VH with H52L, T72S, H99Q
VL: B3 VL
notes: as for B3
B22: hu3G8VH-8/hu3G8VL-1 (antibody, V domains shown)
VH: B3 VH with R30S, W104Y
VL: B3 VL
notes: as for B3
B23: hu3G8VH-28/hu3G8VL-1 (antibody, V domains shown)
VH: B5 VH with I2V, K5R, T10A, T72S, H99A
VL: B3 VL
notes: as for B3
B24: hu3G8VH-42/hu3G8VL-1 (antibody, V domains shown)
VH: B5 VH with H99R, Y104W, D106A
VL: B3 VL
notes: as for B3
B25: hu3G8VH-4/hu3G8VL-1 (antibody, V domains shown)
VH: B3 VH with R30S, R99Q, A106D
VL: B3 VL
notes: as for B3
B26: hu3G8VH-37/hu3G8VL-1 (antibody, V domains shown)
VH: B5 VH with H52L, T72S, H99K, D106A
VL: B3 VL
notes: as for B3
B27: hu3G8VH-29/hu3G8VL-1 (antibody, V domains shown)
VH: B5 VH with I2V, K5R, T10A, T72S
VL: B3 VL
notes: as for B3

Each binder was assayed against T1, soluble form of human CD16A (sCD16A) (human, UniProt P08637 17-203) (assay: in vitro, method not given).
T1 construct: CD16A gene truncated just prior to the transmembrane region, expressed in HEK-293; The last seven residues come from vector pCDNA3.1; also called sFcRIIIa
T1 sequence (P08637 other isoform, or with tags, fused parts or gaps limits assumed): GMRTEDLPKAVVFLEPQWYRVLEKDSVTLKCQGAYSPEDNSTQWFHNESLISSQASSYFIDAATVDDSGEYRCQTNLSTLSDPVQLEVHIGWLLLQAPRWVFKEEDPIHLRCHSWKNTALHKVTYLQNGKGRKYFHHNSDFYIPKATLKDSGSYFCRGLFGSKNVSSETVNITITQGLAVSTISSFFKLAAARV
Excerpt: The same format was used to assay binding of sFcRs to immune complexes (IC) formed on the ELISA plate between ch4-4-20 and FITC-BSA.
After one hour, binding of the soluble receptor to the IC was detected using streptavidin-HRP conjugate and TMB development.

Binding result, binds:
B1

These binders were tested against T1, soluble form of human CD16A (sCD16A) (assay: ELISA, sCD16A captured by mAb LNK-16).
Procedure: The plate was washed and dilutions of recombinant antibodies starting at 0.5 μg/ml in PBS-T-BSA were then added and incubated for 1 hr at room temp. […] After stopping color development using dilute sulfuric acid, the plate was read at 450 nm.

Binding result, binds:
B2, B3, B4, B5, B6, B7, B8, B9, B10, B11, B12, B13, B14, B15, B16, B17, B18, B19, B20, B21, B22, B23, B24, B25, B26, B27
